Data reported in patent publication US8420100B2, “Tumor suppressor activating polypeptides and uses thereof” (Department of Biotechnology, priority 2006, dated 2013).

Legend:
p53 = target: T1, p53 (Homo sapiens, UniProt P04637); assay: Indirect immunofluorescence of p53 in peptide-treated HEK 293 cells (confocal imaging); type: cell-based; conditions: HEK 293, 10 μM peptide, 12 h
T1 construct: HEK 293 (p53^+/+) cells; endogenous in cells; host or cells: HEK 293
Method: HEK 293 cells were treated with 10 μM of various TAT-SMAR1 derived peptides.
FIG. 4. Serine 347 residue of SMAR1 mediates p53 activation and stabilization. A, HEK 293 cells were cultured at a density of 5×10^5 cells and 24 h later treated with 10 μM concentration of either the P44 or various serine-mutant peptides (PS347A, PS348A, PS349A, PS350A and RS mutant; SM). After 12 h of treatment, protein lysates were prepared and immunoblotted using pSer-15 p53 and pcdc-2 antibodies. Actin was used as the loading control. B, Peptides P44 (panel B), PS347A (panel C), PS348A (panel D), PS349A (panel E), PS350A (panel F) and SM (panel G) were incubated at a final concentration of 10 μM with HEK 293 cells for 12 h before indirect immunofluorescence detection with a primary antibody against p53 protein and a secondary fluorescein-conjugated anti-mouse IgG.
Immunocytochemistry and confocal imaging: For direct detection of TRITC-labeled peptides, HEK 293 cells were plated directly on a glass coverslip and cultured overnight prior to their treatment to TRITC-conjugated various TAT-SMAR1 derived peptides. After 12 h incubation, three washings with cold PBS were given and the cells fixed with 3.7% paraformaldehyde before being mounted in PBS/Glycerol (1:1) containing antifading agent. For indirect immunodetection, 2×10^5 HEK 293 cells were plated and cultured overnight in 35 mm plates on glass coverslips. The cell monolayer was then treated with either of the various TAT SMAR1 derived peptides, dissolved directly in complete DMEM medium at the appropriate concentration (final concentration 10 μM). After 12 h incubation, cells were washed twice with cold PBS and fixed with 3.7% paraformaldehyde. Subsequently, fixed cells were stained for total p53 using anti-p53 (DO-1) (SantaCruz) for an hour at room temperature.
For detection, cells were incubated with a secondary-antibody mix containing FITC-conjugated anti-mouse IgG antibodies (Sigma) for 1 h at RT. Slides were then mounted in antifade mounting medium (Dako) and analyzed with a confocal laser scanning microscope (CLSM 510, version 2.01; Zeiss, Thornwood, N.Y.).

[1] = target: T2, p53 (serine-15 phosphorylation) (Homo sapiens, UniProt P04637); assay: Western blotting for total p53 and phospho serine-15 p53 in peptide-treated HEK 293 cells; type: cell-based; conditions: for p53 activation (pSer-15 p53 level): HEK 293, 10 μM peptide, 12 h (FIG. 4A)
T2 construct: HEK 293 (p53^+/+) cells; endogenous in cells; host or cells: HEK 293
Method: P44 peptide controls the activity of cell cycle regulatory proteins: The minimal dose of P44 peptide that was functionally effective in activating p53 was evaluated by incubating HEK 293 cells with varying concentrations of P44 peptide (1-100 μM) (FIG. 3A) and after 12 h of incubation, protein lysates were prepared and processed for immunoblotting with total p53 (DO-1) and p53 ser-15 phospho-specific antibodies. […] However, there was a 4.5-fold increase in the expression of phosphorylated p53 (pSerine-15 p53) in P44 peptide-treated cells (FIG. 3A, lanes 2-6). To exclude the possibility that p53 activation is an effect of the protein transduction domain of HIV-1 TAT protein, similar set of experiment was performed using TAT-PTD peptide alone (consisting of only the 11-mer TAT-sequence). […] This observation reconfirmed that the RS domain (288-350 aa) of SMAR1 could exclusively activate p53 by mediating its phosphorylation specifically at serine-15 residue. Serine-15 phosphorylation of p53 is associated with its increased transcription efficiency, decreased affinity for MDM2, and its increased nuclear retention. One of the target genes activated by p53 is p21, an inhibitor of a subset of the cyclin-dependent kinases including cdc-2 (Sherr, C. J., and Roberts, J. M. (1999) Genes Dev. 13, 1501-1512). To evaluate the significance of peptide-mediated p53 activation, P44 peptide-treated lysates were further checked for tyrosine 15 phosphorylation of cdc2. […] HEK 293 cells were treated with SM peptide and checked for p53 as well as pcdc-2 levels.
Serine 347 residue of SMAR1: critical for mediating the effects of full-length SMAR1: Once it was established that the serine motif (SSSSYS) plays a pivotal role in SMAR1-mediated p53 activation, it got necessary to identify the serine residue within this motif that might be necessary in mediating these effects. To identify the critical serine residue within P44 peptide, various point-mutant peptides were custom synthesized, that varied with respect to the position of serine residue that was mutated (Table 1). To evaluate the functionality of mutant chimeric TAT-SMAR1 peptides [PS347A, PS348A, PS349A, PS350A and RS mutant (SM)] in comparison to the TAT-SMAR1 WT peptide (P44), HEK 293 cells were treated with 10 μM concentration of either of the peptides and protein lysates were prepared after 12 h incubation period. The lysates were then processed for immunoblotting with pSer-15 p53 and pcdc-2 antibodies. […] However, this was not the case with other mutated peptides. When the alanine was replaced back to serine at the 347 residue (FIG. 4A, lanes 3-5), the functionality of the peptide was restored as observed with increase in pcdc-2 levels. […] However, in case of SM (where serine residues from 347-350 were replaced by alanines) treated cells (FIG. 4A, lane 7), there was no difference in the pSer-15 p53 as well as pcdc-2 levels compared to either untreated or PS347A treated cells (FIG. 4A, lanes 1 and 2, respectively).
FIG. 3. P44 peptide activates p53-mediated cell cycle pathway. A, HEK 293 cells were seeded at a density of 5×10^5 and after 24 h, was incubated with increasing concentrations of the TAT-SMAR1 WT (P44) peptide. Protein lysates were prepared and then immunoblotted with antibodies to total p53, phospho serine-15. B, The same set of experiment was repeated with TAT PTD peptide representing the PTD carrier sequence alone and immunoblotted with phospho serine-15, in comparison of P44 treated cells. C, The status of phospho cdc-2 was further analyzed in P44 peptide treated cells. Total […] was used as an internal control. D, The same set of experiments were again repeated using TAT-SMAR1 RS mutant (SM) peptide and whole cell lysates were probed for phospho p53 serine-15 and pcdc-2 antibodies. […] was used as a loading control.
FIG. 4. Serine 347 residue of SMAR1 mediates p53 activation and stabilization. […]

[2] = tested on: protein kinase C (PKC) family of proteins; assay: In vitro phosphorylation (kinase) assay with HEK 293 whole cell extract; type: biochemical; conditions: for phosphorylation of peptide by extract of staurosporine-treated cells: extract from 293 cells treated with 20 nM staurosporine (PKC inhibitor); for phosphorylation of peptide by whole cell extract: extract from untreated 293 cells

T1 sequence (P04637 whole entry): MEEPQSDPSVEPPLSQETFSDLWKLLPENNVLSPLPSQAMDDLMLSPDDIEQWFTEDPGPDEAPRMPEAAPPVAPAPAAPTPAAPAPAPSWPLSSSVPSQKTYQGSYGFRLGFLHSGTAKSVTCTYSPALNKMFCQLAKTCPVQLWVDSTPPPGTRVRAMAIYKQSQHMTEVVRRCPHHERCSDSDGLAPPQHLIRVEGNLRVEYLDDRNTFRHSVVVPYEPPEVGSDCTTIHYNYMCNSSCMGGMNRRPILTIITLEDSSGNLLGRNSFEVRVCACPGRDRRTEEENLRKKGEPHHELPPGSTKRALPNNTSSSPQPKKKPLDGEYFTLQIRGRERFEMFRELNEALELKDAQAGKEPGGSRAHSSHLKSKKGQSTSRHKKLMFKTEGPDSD
T2 sequence (P04637 whole entry): as above

Sequence: YGRKKRRQRRRTAWRRKQRGQSLAVKSFSRRTPSASSYSASETM [PS348A, point mutant of P44, serine 348 replaced by alanine]
- p53 activation and stabilization within the nucleus (p53): p53 stabilization was observed
- p53 activation (pSer-15 p53 level) [1]: No significant decrease
- phosphorylation of peptide by extract of staurosporine-treated cells [2]: failed to phosphorylate

Sequence: YGRKKRRQRRRTAWRRKQRGQSLAVKSFSRRTPASSSYSASETM [PS347A, point mutant of P44, serine 347 replaced by alanine]
- p53 activation and stabilization within the nucleus (p53): almost negligible expression of p53 within the nucleus
- p53 activation (pSer-15 p53 level) [1]: no significant activation
- phosphorylation of peptide by extract of staurosporine-treated cells [2]: no difference
- phosphorylation of peptide by whole cell extract [2]: abolished

Sequence: YGRKKRRQRRRTAWRRKQRGQSLAVKSFSRRTPSSSAYSASETM [PS350A, point mutant of P44, serine 350 replaced by alanine]
- p53 activation and stabilization within the nucleus (p53): p53 stabilization was observed
- p53 activation (pSer-15 p53 level) [1]: No significant decrease
- phosphorylation of peptide by extract of staurosporine-treated cells [2]: failed to phosphorylate

Sequence: YGRKKRRQRRRTAWRRKQRGQSLAVKSFSRRTPAAAAYSASETM [SM, P44 mutant where serine residues from 347-350 were replaced by alanines]
- p53 activation and stabilization within the nucleus (p53): almost negligible expression of p53 within the nucleus
- p53 activation (pSer-15 p53 level) [1]: no difference
- expression level of p53 phospho-serine 15 compared to untreated cells ([1]; HEK 293, SM peptide-treated lysates (FIG. 3D)): no increase
- phosphorylation of peptide by extract of staurosporine-treated cells [2]: no difference
- phosphorylation of peptide by whole cell extract [2]: not and further reduction in its phosphorylation compared to PS347A peptide

Sequence: YGRKKRRQRRRTAWRRKQRGQSLAVKSFSRRTPSSASYSASETM [PS349A, point mutant of P44, serine 349 replaced by alanine]
- p53 activation and stabilization within the nucleus (p53): p53 stabilization was observed
- p53 activation (pSer-15 p53 level) [1]: No significant decrease
- phosphorylation of peptide by extract of staurosporine-treated cells [2]: failed to phosphorylate

Sequence: YGRKKRRQRRRTAWRRKQRGQSLAVKSFSRRTPSSSSYSASETM [P44, 33 mer SMAR1 peptide (residues 324-357) conjugated with 11-mer TAT-PTD]
- p53 activation and stabilization within the nucleus (p53): activate and stabilize p53 within the nucleus
- increase in expression of phosphorylated p53 (pSerine-15 p53) ([1]; HEK 293, P44 1-100 μM, 12 h): 4.5 fold
- total p53 expression (DO-1) ([1]; HEK 293, P44 1-100 μM, 12 h): slight increase
- phosphorylation of peptide by extract of staurosporine-treated cells [2]: failed to phosphorylate
- phosphorylation of peptide by whole cell extract [2]: gets phosphorylated
- increased γ-P32 ATP incorporation in comparison to mutant counterpart (SM) ([2]; whole cell extract from untreated 293 cells): 6 to 7 fold
